Measured values: patent publication US11492376B2, “Toxoplasma gondii GRA8-derived recombinant peptides and composition for preventing or treating cancer comprising the same” (Industry—University Cooperation Foundation Hanyang …, priority 2019, dated 2022)

Tests used:
[1] = test system: GRA8-ATP5A1/SIRT3 interaction; assay: GST pulldown of GRA8-ATP5A1/SIRT3 interaction in 293T cells; type: cell-based; details: 10 μM peptide, within 6 hours of incubation
Protocol: (§1) FIGS. 2A, 2B, 2C, 2D and 2E show the design and expression of an ATRAM-conjugated multifunctional GRA8 peptide (rATRAM-G8-M/AS)-based protein [(A) Subcellular fractionation of 293T cells was performed by expression of GST-GRA8 WT or incubation of WT rGRA8 with (1 μg/ml) BMDM and treatment with several Tat-GRA8 peptides for 6 hours (10 μM). Mitochondrial and cytosolic fractions were fractionated and analyzed for expression of GST by IB. The purity of the fractions was confirmed by blotting for VDAC (mitochondrial protein) and actin (cytosolic protein). (B) A mammalian GST-GRA8 construct was transfected into 293T cells for 12 hours with V5-ATP5A1 or Flag-SIRT3, and treated with several Tat-GRA8 peptides (10 μM) for 6 hours. The 293T cells were used for GST pulldown, followed by IB with αV5 or αFlag. WCL was used for IB with αGST, αV5, αFlag or αActin. (C) The schematic design of ATRAM-GRA8-M/AS and its mutants [ATRAM-G8-M/AS (SEQ ID NO: 1), ATRAM-G8-M (SEQ ID NO: 2), ATRAM (SEQ ID NO: 3)]. (D) 6×His-rATRAM-GRA8-M/AS purified with bacteria and its mutants were analyzed by Coomassie blue staining (left) or αHis immunoblotting (IB; right). (E) BMDM was incubated with rATRAM-GRA8-M/AS and its mutant (20 μg/ml) for indicated times, and cell viability was then measured by an MMT assay. Data represents four independent experiments with similar results (A, B, D and E)]. […]

[2] = test system: mitochondrial targeting of GRA8; assay: Subcellular fractionation: mitochondrial localization of GRA8; type: cell-based; details: 10 μM peptide, within 6 hours of incubation; 293T cells or BMDM
Protocol: as §1

[3] = test system: ATP5A1, SIRT3 and ATP5C1; assay: Immunoprecipitation/immunoblotting in HCT116 cells; type: cell-based, human; details: IP/IB
Protocol: (§2) FIGS. 1A, 1B and 1C: confirms that rGRA8 treatment increases HCT116 cell death by mitochondria pathways [(A and B). Various cancer cells were incubated with WT rGRA8 (20 μg/ml) and its mutants for indicated times and then cell viability was measured by MTT analysis (upper) and αATP5A1, αSIRT3 or αActin immunoblotting (lower) was performed. […] The cells were incubated with WT rGRA8 for indicated times and subjected to IP with αLys-AC or αHis and IB with αATP5A1, αATP5C1, αSIRT3, αPGC-1, αPKCα or αActin. Data represents five independent experiments with similar results. Significant differences were determined by comparison with rVector treatment (** P<0.01; *** P<0.001)].
For immunoprecipitation, cells were obtained, and then lysed in an NP-40 buffer supplemented with a complete protease inhibitor cocktail (Roche). After pre-purification with A/G agarose beads at 4° C. for 1 hour, a whole cell lysate was used for immunoprecipitation with indicated antibodies. […]
For immunoblotting, polypeptides were subjected to electrophoresis (PAGE) with an SDS-polyacrylamide gel, and then transferred to a PVDF membrane (Bio-Rad) for separation. […] Antibody binding was visualized by chemiluminescence (ECL; Millipore) and detected by a Vilber chemiluminescence analyzer (Fusion SL 3; Vilber Lourmat).

[4] = test system: HT-29; assay: MTT assay of cell viability, HT-29 cells; type: cell-based, human; details: 20 μg/ml, over time
Protocol: as §2
(§3) As described in Non-Patent Document 1, the cell viability for a non-treated group was measured by an MTT assay. After incubation for an indicated time, 5 mg/ml of a 3-(4,5-dimethyl thiazol-2-yl)-2,5-diphenyltetrazoliumbromide (MTT) solution was added to a medium, and the cells were further incubated for 4 hours. Subsequently, all of the medium was removed, the same volume of a dimethyl sulfoxide (DMSO) solution was added for 15 minutes to dissolve formazan. Using a UV/VIS spectrophotometer, each well of a plate was measured at 540 nm to measure relative cell viability.

[5] = test system: HCT116 xenografts; assay: HCT116 xenograft mouse model, antitumor activity; type: in vivo, nude mouse; details: HCT116 xenograft mice
[6] = test system: HCT116 cells; assay: MTT assay of cell viability, HCT116 cells; type: cell-based, human
Protocol: as §2
FIGS. 4A, 4B, 4C, 4D and 4E show HCT116 cell death by rATRAM-GRA8-M/AS-induced mitochondrial activation [(A and B) HCT116 cells were incubated with WT rGRA8 or rATRAM-GRA8-M/AS and its mutants for indicated times, and then cell viability was measured with an MTT assay. […] The cells were stimulated with rATRAM-GRA8-M/AS for 1 day and subjected to enzymatic activity of OXPHOS V, and (C) MitoTracker fluorescence signals were assessed by flow cytometry. (D) A bar graph indicates a mitochondrial mass (MFI), and (E) the mtDNA content of BMDM was measured by quantitative real-time PCR. The mtDNA content was normalized by nuclear DNA. Significant differences were determined by comparison with control treatment (** P<0.01; *** P<0.001). Data represents five independent experiments with similar results].
as §3

For “GRKKRRQRRR-G-YRFTVQTTQN (GRKKRRQRRRGYRFTVQTTQN; Tat-GRA8-(260-269)) [Tat-GRA8 (aa 260-269)]”, the “prevention of GRA8-ATP5A1/SIRT3 interaction” value [1] was “able to effectively prevent”.

With GRKKRRQRRR (Tat) [reference compound] the “blocking of mitochondrial targeting of GRA8” value [2] was “impossible”.

“GRKKRRQRRR-G-ATATTTTTTR (GRKKRRQRRRGATATTTTTTR; Tat-GRA8-(213-222)) [Tat-GRA8 (aa 213-222)]” was tested, and the “blocking of mitochondrial targeting of GRA8” value [2] was “can effectively block mitochondrial targeting”.

B1: rGRA8: recombinant His-tagged Toxoplasma gondii dense granule antigen 8, 269 amino acids; conventional GRA8-derived peptide (protein)
chain: MALPLRVSATVFVVFAVFGVARAMNGPLSYHPSSYGASYPNPSNPLHGMPKPENPVRPPPPGFHPSVIPNPPYPLGTPAGMPQPEVPPLQHPPPTGSPPAAAPQPPYPVGTPGMPQPEIPPVHRPPPPGFRPEVAPVPPYPVGTPTGMPQPEIPAVHHPFPYVTTTTTAAPRVLVYKIPYGGAAPPRAPPVPPRMGPSDISTHVRGAIRRQPATATTTTTTRNVLLRTAILAAAAATLIALFRQRPLFTEGVRMFPDFQYRFTVQTTQN
modifications: left off: small tags and cut ends
notes: recombinant His-tagged Toxoplasma gondii dense granule antigen 8, 269 amino acids; conventional GRA8-derived peptide
In the case of B1, the ATP5A1 deacetylation [3] is reported as “increased ATP5A1 deacetylation”, the “binding of rGRA8 to ATP5A1, SIRT3 and ATP5C1” value [3] is reported as “significantly increased” and the “cell death in HT-29” value [4] is reported as “induced cell death”. The “IC50 (antitumor activity in xenograft)” value [5] was 10 mg/kg, the “cell death in HCT116” value ([6]; 20 μg/ml, over time, MTT) was “induced cell death” and the “IC50 (HCT116 cell death)” value ([6]; HCT116 cells, MTT (FIG. 4A)) was 20 µg/mL.
